Laboratory results as given in patent US20210388087A1 (Chugai, published 2021).

T1: Human CD3eg linker (human)
T1 construct: Single chain: epsilon and gamma subunits of human CD3 joined by a 29-mer linker, Flag-tag at the C-terminus; also called recombinant human CD3
T1 chain: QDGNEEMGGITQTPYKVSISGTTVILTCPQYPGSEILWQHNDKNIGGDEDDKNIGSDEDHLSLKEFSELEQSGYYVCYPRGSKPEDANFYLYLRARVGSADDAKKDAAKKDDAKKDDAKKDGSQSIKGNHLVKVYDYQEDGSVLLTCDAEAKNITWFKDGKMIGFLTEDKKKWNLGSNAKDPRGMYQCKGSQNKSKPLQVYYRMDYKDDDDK

B1: H183/L072 VH Y55K (antibody, name in Kabat numbering, V domains shown)
VH: QVQLVESGGGLVQPGRSLRLSCAASGFTFSNAWMHWVRQAPGKGLEWVAQIKDKGNAKAAYYAPSVKGRFTISRDDSKNSIYLQMNSLKTEDTAVYYCHYVHYASASTVLPAFGVDAWGQGTTVTVSS
VL: DIVMTQSPLSLPVTPGEPASISCQASQELVHMNRNTYLHWYQQKPGQAPRLLIYKVSNRFPGVPDRFSGSGSGTDFTLKISRVEAEDVGVYYCAQGTSVPFTFGQGTKLEIK
B2: H183/L072 VH Y55W (antibody, name in Kabat numbering, V domains shown)
VH: QVQLVESGGGLVQPGRSLRLSCAASGFTFSNAWMHWVRQAPGKGLEWVAQIKDKGNAWAAYYAPSVKGRFTISRDDSKNSIYLQMNSLKTEDTAVYYCHYVHYASASTVLPAFGVDAWGQGTTVTVSS
VL: DIVMTQSPLSLPVTPGEPASISCQASQELVHMNRNTYLHWYQQKPGQAPRLLIYKVSNRFPGVPDRFSGSGSGTDFTLKISRVEAEDVGVYYCAQGTSVPFTFGQGTKLEIK
B3: H183/L072 VH Y58I (antibody, name in Kabat numbering, V domains shown)
VH: QVQLVESGGGLVQPGRSLRLSCAASGFTFSNAWMHWVRQAPGKGLEWVAQIKDKGNAYAAIYAPSVKGRFTISRDDSKNSIYLQMNSLKTEDTAVYYCHYVHYASASTVLPAFGVDAWGQGTTVTVSS
VL: DIVMTQSPLSLPVTPGEPASISCQASQELVHMNRNTYLHWYQQKPGQAPRLLIYKVSNRFPGVPDRFSGSGSGTDFTLKISRVEAEDVGVYYCAQGTSVPFTFGQGTKLEIK
B4: H183/L072 VH Y55S (antibody, name in Kabat numbering, V domains shown)
VH: QVQLVESGGGLVQPGRSLRLSCAASGFTFSNAWMHWVRQAPGKGLEWVAQIKDKGNASAAYYAPSVKGRFTISRDDSKNSIYLQMNSLKTEDTAVYYCHYVHYASASTVLPAFGVDAWGQGTTVTVSS
VL: DIVMTQSPLSLPVTPGEPASISCQASQELVHMNRNTYLHWYQQKPGQAPRLLIYKVSNRFPGVPDRFSGSGSGTDFTLKISRVEAEDVGVYYCAQGTSVPFTFGQGTKLEIK
B5: H183/L072 VH Y58L (antibody, name in Kabat numbering, V domains shown)
VH: QVQLVESGGGLVQPGRSLRLSCAASGFTFSNAWMHWVRQAPGKGLEWVAQIKDKGNAYAALYAPSVKGRFTISRDDSKNSIYLQMNSLKTEDTAVYYCHYVHYASASTVLPAFGVDAWGQGTTVTVSS
VL: DIVMTQSPLSLPVTPGEPASISCQASQELVHMNRNTYLHWYQQKPGQAPRLLIYKVSNRFPGVPDRFSGSGSGTDFTLKISRVEAEDVGVYYCAQGTSVPFTFGQGTKLEIK
B6: H183/L072 VH Y55Q (antibody, name in Kabat numbering, V domains shown)
VH: QVQLVESGGGLVQPGRSLRLSCAASGFTFSNAWMHWVRQAPGKGLEWVAQIKDKGNAQAAYYAPSVKGRFTISRDDSKNSIYLQMNSLKTEDTAVYYCHYVHYASASTVLPAFGVDAWGQGTTVTVSS
VL: DIVMTQSPLSLPVTPGEPASISCQASQELVHMNRNTYLHWYQQKPGQAPRLLIYKVSNRFPGVPDRFSGSGSGTDFTLKISRVEAEDVGVYYCAQGTSVPFTFGQGTKLEIK
B7: H183/L072 VH Y58G (antibody, name in Kabat numbering, V domains shown)
VH: QVQLVESGGGLVQPGRSLRLSCAASGFTFSNAWMHWVRQAPGKGLEWVAQIKDKGNAYAAGYAPSVKGRFTISRDDSKNSIYLQMNSLKTEDTAVYYCHYVHYASASTVLPAFGVDAWGQGTTVTVSS
VL: DIVMTQSPLSLPVTPGEPASISCQASQELVHMNRNTYLHWYQQKPGQAPRLLIYKVSNRFPGVPDRFSGSGSGTDFTLKISRVEAEDVGVYYCAQGTSVPFTFGQGTKLEIK
B8: H183/L072 VH Y58D (antibody, name in Kabat numbering, V domains shown)
VH: QVQLVESGGGLVQPGRSLRLSCAASGFTFSNAWMHWVRQAPGKGLEWVAQIKDKGNAYAADYAPSVKGRFTISRDDSKNSIYLQMNSLKTEDTAVYYCHYVHYASASTVLPAFGVDAWGQGTTVTVSS
VL: DIVMTQSPLSLPVTPGEPASISCQASQELVHMNRNTYLHWYQQKPGQAPRLLIYKVSNRFPGVPDRFSGSGSGTDFTLKISRVEAEDVGVYYCAQGTSVPFTFGQGTKLEIK
B9: H183/L072 VH Y58H (antibody, name in Kabat numbering, V domains shown)
VH: QVQLVESGGGLVQPGRSLRLSCAASGFTFSNAWMHWVRQAPGKGLEWVAQIKDKGNAYAAHYAPSVKGRFTISRDDSKNSIYLQMNSLKTEDTAVYYCHYVHYASASTVLPAFGVDAWGQGTTVTVSS
VL: DIVMTQSPLSLPVTPGEPASISCQASQELVHMNRNTYLHWYQQKPGQAPRLLIYKVSNRFPGVPDRFSGSGSGTDFTLKISRVEAEDVGVYYCAQGTSVPFTFGQGTKLEIK
B10: H183/L072 VH Y55V (antibody, name in Kabat numbering, V domains shown)
VH: QVQLVESGGGLVQPGRSLRLSCAASGFTFSNAWMHWVRQAPGKGLEWVAQIKDKGNAVAAYYAPSVKGRFTISRDDSKNSIYLQMNSLKTEDTAVYYCHYVHYASASTVLPAFGVDAWGQGTTVTVSS
VL: DIVMTQSPLSLPVTPGEPASISCQASQELVHMNRNTYLHWYQQKPGQAPRLLIYKVSNRFPGVPDRFSGSGSGTDFTLKISRVEAEDVGVYYCAQGTSVPFTFGQGTKLEIK
B11: H183/L072 VH Y58K (antibody, name in Kabat numbering, V domains shown)
VH: QVQLVESGGGLVQPGRSLRLSCAASGFTFSNAWMHWVRQAPGKGLEWVAQIKDKGNAYAAKYAPSVKGRFTISRDDSKNSIYLQMNSLKTEDTAVYYCHYVHYASASTVLPAFGVDAWGQGTTVTVSS
VL: DIVMTQSPLSLPVTPGEPASISCQASQELVHMNRNTYLHWYQQKPGQAPRLLIYKVSNRFPGVPDRFSGSGSGTDFTLKISRVEAEDVGVYYCAQGTSVPFTFGQGTKLEIK
B12: H183/L072 VH Y58A (antibody, name in Kabat numbering, V domains shown)
VH: QVQLVESGGGLVQPGRSLRLSCAASGFTFSNAWMHWVRQAPGKGLEWVAQIKDKGNAYAAAYAPSVKGRFTISRDDSKNSIYLQMNSLKTEDTAVYYCHYVHYASASTVLPAFGVDAWGQGTTVTVSS
VL: DIVMTQSPLSLPVTPGEPASISCQASQELVHMNRNTYLHWYQQKPGQAPRLLIYKVSNRFPGVPDRFSGSGSGTDFTLKISRVEAEDVGVYYCAQGTSVPFTFGQGTKLEIK
B13: H183/L072 VH Y55N (antibody, name in Kabat numbering, V domains shown)
VH: QVQLVESGGGLVQPGRSLRLSCAASGFTFSNAWMHWVRQAPGKGLEWVAQIKDKGNANAAYYAPSVKGRFTISRDDSKNSIYLQMNSLKTEDTAVYYCHYVHYASASTVLPAFGVDAWGQGTTVTVSS
VL: DIVMTQSPLSLPVTPGEPASISCQASQELVHMNRNTYLHWYQQKPGQAPRLLIYKVSNRFPGVPDRFSGSGSGTDFTLKISRVEAEDVGVYYCAQGTSVPFTFGQGTKLEIK
B14: H183/L072 VH Y58E (antibody, name in Kabat numbering, V domains shown)
VH: QVQLVESGGGLVQPGRSLRLSCAASGFTFSNAWMHWVRQAPGKGLEWVAQIKDKGNAYAAEYAPSVKGRFTISRDDSKNSIYLQMNSLKTEDTAVYYCHYVHYASASTVLPAFGVDAWGQGTTVTVSS
VL: DIVMTQSPLSLPVTPGEPASISCQASQELVHMNRNTYLHWYQQKPGQAPRLLIYKVSNRFPGVPDRFSGSGSGTDFTLKISRVEAEDVGVYYCAQGTSVPFTFGQGTKLEIK
B15: H183/L072 VH Y55L (antibody, name in Kabat numbering, V domains shown)
VH: QVQLVESGGGLVQPGRSLRLSCAASGFTFSNAWMHWVRQAPGKGLEWVAQIKDKGNALAAYYAPSVKGRFTISRDDSKNSIYLQMNSLKTEDTAVYYCHYVHYASASTVLPAFGVDAWGQGTTVTVSS
VL: DIVMTQSPLSLPVTPGEPASISCQASQELVHMNRNTYLHWYQQKPGQAPRLLIYKVSNRFPGVPDRFSGSGSGTDFTLKISRVEAEDVGVYYCAQGTSVPFTFGQGTKLEIK
B16: H183/L072 VH Y55M (antibody, name in Kabat numbering, V domains shown)
VH: QVQLVESGGGLVQPGRSLRLSCAASGFTFSNAWMHWVRQAPGKGLEWVAQIKDKGNAMAAYYAPSVKGRFTISRDDSKNSIYLQMNSLKTEDTAVYYCHYVHYASASTVLPAFGVDAWGQGTTVTVSS
VL: DIVMTQSPLSLPVTPGEPASISCQASQELVHMNRNTYLHWYQQKPGQAPRLLIYKVSNRFPGVPDRFSGSGSGTDFTLKISRVEAEDVGVYYCAQGTSVPFTFGQGTKLEIK
B17: H183/L072 VH Y55R (antibody, name in Kabat numbering, V domains shown)
VH: QVQLVESGGGLVQPGRSLRLSCAASGFTFSNAWMHWVRQAPGKGLEWVAQIKDKGNARAAYYAPSVKGRFTISRDDSKNSIYLQMNSLKTEDTAVYYCHYVHYASASTVLPAFGVDAWGQGTTVTVSS
VL: DIVMTQSPLSLPVTPGEPASISCQASQELVHMNRNTYLHWYQQKPGQAPRLLIYKVSNRFPGVPDRFSGSGSGTDFTLKISRVEAEDVGVYYCAQGTSVPFTFGQGTKLEIK
B18: H183/L072 VH Y55T (antibody, name in Kabat numbering, V domains shown)
VH: QVQLVESGGGLVQPGRSLRLSCAASGFTFSNAWMHWVRQAPGKGLEWVAQIKDKGNATAAYYAPSVKGRFTISRDDSKNSIYLQMNSLKTEDTAVYYCHYVHYASASTVLPAFGVDAWGQGTTVTVSS
VL: DIVMTQSPLSLPVTPGEPASISCQASQELVHMNRNTYLHWYQQKPGQAPRLLIYKVSNRFPGVPDRFSGSGSGTDFTLKISRVEAEDVGVYYCAQGTSVPFTFGQGTKLEIK
B19: H183/L072 VH Y55P (antibody, name in Kabat numbering, V domains shown)
VH: QVQLVESGGGLVQPGRSLRLSCAASGFTFSNAWMHWVRQAPGKGLEWVAQIKDKGNAPAAYYAPSVKGRFTISRDDSKNSIYLQMNSLKTEDTAVYYCHYVHYASASTVLPAFGVDAWGQGTTVTVSS
VL: DIVMTQSPLSLPVTPGEPASISCQASQELVHMNRNTYLHWYQQKPGQAPRLLIYKVSNRFPGVPDRFSGSGSGTDFTLKISRVEAEDVGVYYCAQGTSVPFTFGQGTKLEIK
B20: H183/L072 VH Y58F (antibody, name in Kabat numbering, V domains shown)
VH: QVQLVESGGGLVQPGRSLRLSCAASGFTFSNAWMHWVRQAPGKGLEWVAQIKDKGNAYAAFYAPSVKGRFTISRDDSKNSIYLQMNSLKTEDTAVYYCHYVHYASASTVLPAFGVDAWGQGTTVTVSS
VL: DIVMTQSPLSLPVTPGEPASISCQASQELVHMNRNTYLHWYQQKPGQAPRLLIYKVSNRFPGVPDRFSGSGSGTDFTLKISRVEAEDVGVYYCAQGTSVPFTFGQGTKLEIK

Molecular target: T1, Human CD3eg linker
Assay: Biacore SPR, vs template H183/L072

Going from B1 to B2, the “fold change of affinity” value rises from 0.4 fold to 0.5 fold.

Going from B3 to B4, the “fold change of affinity” value falls from 0.3 fold to 0 fold.

Going from B5 to B6, the “fold change of affinity” value rises from 0.4 fold to 0.5 fold.

Going from B7 to B8, the “fold change of affinity” value falls from 0.3 fold to 0 fold.

Compared with B9, B10 is lower in “fold change of affinity” value: 0.6 fold for the first, 0.3 fold for the second.

B11 and B12 are the same in “fold change of affinity” value: 0.6 fold for the first, 0.6 fold for the second.

First: B13
Second: B14
The “fold change of affinity” value of the first is higher: 0.7 fold for the first, 0.2 fold for the second.

First: B15
Second: B16
The “fold change of affinity” value of the first is lower: 0.5 fold for the first, 0.6 fold for the second.

Going from B17 to B18, the “fold change of affinity” value falls from 0.4 fold to 0 fold.

Going from B19 to B20, the “fold change of affinity” value rises from 0 fold to 1.4 fold.
